# According to article PMC3164876:
# Assays:
# [1] = biological target: SC1918/H1 (A/South Carolina/1/1918 (H1N1)) HA ectodomain (influenza A virus A/South Carolina/1/1918 (H1N1)) (UniProt Q9WFX3); assay: SPR
# [2] = biological target: HB80 Met26Thr, displayed on yeast; assay: flow cytometry on cells
# [3] = biological target: HB80 Met26Thr Asn36Lys, displayed on yeast; assay: flow cytometry on cells
# [4] = biological target: HB36.3 (HB36 Asp47Ser, Ala60Val), displayed on yeast; assay: flow cytometry on cells
# [5] = biological target: HB80 Δ54–95, Met26Thr, Asn36Lys, displayed on yeast; assay: flow cytometry on cells
# [6] = biological target: HB80.3 (HB80 Δ54–95, Asp12Gly, Ala24Ser, Met26Thr, Asn36Lys), displayed on yeast; assay: flow cytometry on cells
# [7] = biological target: HB36.4 (HB36 Asp47Ser, Ala60Val, Asn64Lys), displayed on yeast; assay: flow cytometry on cells
# [8] = biological target: HB80 Asn36Lys, displayed on yeast; assay: flow cytometry on cells
# [9] = biological target: HB36 Asp47Ser, displayed on yeast; assay: flow cytometry on cells
substance,measurement,setting,value
"HB36.3 (HB36 Asp47Ser, Ala60Val), purified from E. coli (designed binder)",Kd,[1],29 nM
"HB36.4 (HB36 Asp47Ser, Ala60Val, Asn64Lys), purified from E. coli (designed binder)",Kd,[1],22 nM
"HB80.3 (HB80 Δ54–95, Asp12Gly, Ala24Ser, Met26Thr, Asn36Lys), purified from E. coli (designed binder)",Kd,[1],38 nM
SC1918/H1 (A/South Carolina/1/1918 (H1N1)) HA ectodomain (from UniProt Q9WFX3 18-529) (domain or fragment),Kd,[2],100 nM
same,Kd,[3],7.5 nM
same,Kd,[4],4 nM
same,Kd,[5],5 nM
same,Kd,[6],3 nM
same,Kd,[7],4 nM
same,Kd,[8],300 nM
same,Kd,[9],5 nM
